Test results taken from article PMC11076521, “Structural basis for the intracellular regulation of ferritin degradation” (Nature Communications, 2024).

B1: C-terminally HA-FLAG-tagged NCOA4 (natural protein, UniProt Q13772 1-614, looked up)
chain: MNTFQDQSGSSSNREPLLRCSDARRDLELAIGGVLRAEQQIKDNLREVKAQIHSCISRHLECLRSREVWLYEQVDLIYQLKEETLQQQAQQLYSLLGQFNCLTHQLECTQNKDLANQVSVCLERLGSLTLKPEDSTVLLFEADTITLRQTITTFGSLKTIQIPEHLMAHASSANIGPFLEKRGCISMPEQKSASGIVAVPFSEWLLGSKPASGYQAPYIPSTDPQDWLTQKQTLENSQTSSRACNFFNNVGGNLKGLENWLLKSEKSSYQKCNSHSTTSSFSIEMEKVGDQELPDQDEMDLSDWLVTPQESHKLRKPENGSRETSEKFKLLFQSYNVNDWLVKTDSCTNCQGNQPKGVEIENLGNLKCLNDHLEAKKPLSTPSMVTEDWLVQNHQDPCKVEEVCRANEPCTSFAECVCDENCEKEALYKWLLKKEGKDKNGMPVEPKPEPEKHKDSLNMWLCPRKEVIEQTKAPKAMTPSRIADSFQVIKNSPLSEWLIRPPYKEGSPKEVPGTEDRAGKQKFKSPMNTSWCSFNTADWVLPGKKMGNLSQLSSGEDKWLLRKKAQEVLLNSPLQEEHNFPPDHYGLPAVCDLFACMQLKVDKEKWLYRTPLQM
notes: the discussion calls the NCOA4 of the cellular studies full-length; also called full-length NCOA4; source: HEK293T-FTH1 KO, transiently transfected, in lysate; HeLa-FTH1 KO, in lysate; not shown: HA, C-terminal, kept; FLAG, C-terminal, kept
B2: NCOA4 ferritin-binding fragment (amino acids 383-522), His-tagged (domain or fragment, UniProt Q13772 383-522, looked up)
chain: SMVTEDWLVQNHQDPCKVEEVCRANEPCTSFAECVCDENCEKEALYKWLLKKEGKDKNGMPVEPKPEPEKHKDSLNMWLCPRKEVIEQTKAPKAMTPSRIADSFQVIKNSPLSEWLIRPPYKEGSPKEVPGTEDRAGKQK
notes: No tag cleavage is described; also called NCOA4^FB; NCOA4-383-522; source: E. coli T7 Lys, purified (HisTrap, PD10 desalting)

Key:
[1] = biological target: T1, N-terminally MYC-tagged FTH1-R23I (human, UniProt P02794 1-183, R23I); experiment: co-IP; HEK293T-FTH1 KO cells, transient expression; anti-MYC agarose IP of MYC-FTH1, immunoblot; 50 mM Tris-HCl pH 7.5, 150 mM NaCl, 0.5% Nonidet P40, 1 mM DTT; quantified relative to FTH1-WT, normalized to immunoprecipitated FTH1; conditions: partners not purified
T1 construct: ferritin heavy chain (FTH1), NM_002032.3, mutant synthesized by Twist Bioscience in pTwist EF1 Alpha; source: HEK293T-FTH1 KO, transiently transfected, in lysate; not shown: MYC, N-terminal, kept
T1 sequence (P02794 whole entry R23I): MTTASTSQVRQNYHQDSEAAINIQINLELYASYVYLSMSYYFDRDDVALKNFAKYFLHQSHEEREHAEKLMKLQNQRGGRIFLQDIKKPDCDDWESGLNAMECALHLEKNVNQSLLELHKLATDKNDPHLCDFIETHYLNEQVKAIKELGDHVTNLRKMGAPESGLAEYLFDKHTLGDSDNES

[2] = biological target: T2, N-terminally MYC-tagged FTH1-S114E (human, UniProt P02794 1-183, S114E); experiment: as above; conditions: partners not purified
T2 construct: ferritin heavy chain (FTH1), NM_002032.3, phosphomimetic mutant synthesized by Twist Bioscience in pTwist EF1 Alpha; source: HEK293T-FTH1 KO, transiently transfected, in lysate; not shown: MYC, N-terminal, kept
T2 sequence (P02794 whole entry S114E): as the sequence (P02794 whole entry R23I) above, with I23R, S114E counted along it

[3] = biological target: T3, N-terminally MYC-tagged FTH1-R23L (human, UniProt P02794 1-183, R23L); experiment: as above; conditions: partners not purified
T3 construct: ferritin heavy chain (FTH1), NM_002032.3, mutant synthesized by Twist Bioscience in pTwist EF1 Alpha; source: HEK293T-FTH1 KO, transiently transfected, in lysate; not shown: MYC, N-terminal, kept
T3 sequence (P02794 whole entry R23L): as the sequence (P02794 whole entry R23I) above, with I23L counted along it

[4] = biological target: T4, N-terminally MYC-tagged FTH1-R23A (human, UniProt P02794 1-183, R23A); experiment: as above; conditions: partners not purified
T4 construct: ferritin heavy chain (FTH1), NM_002032.3, mutant synthesized by Twist Bioscience in pTwist EF1 Alpha; source: HEK293T-FTH1 KO, transiently transfected, in lysate; not shown: MYC, N-terminal, kept
T4 sequence (P02794 whole entry R23A): as the sequence (P02794 whole entry R23I) above, with I23A counted along it

[5] = biological target: T5, N-terminally MYC-tagged FTH1-A19Y (human, UniProt P02794 1-183, A19Y); experiment: as above; conditions: partners not purified
T5 construct: ferritin heavy chain (FTH1), NM_002032.3, mutant synthesized by Twist Bioscience in pTwist EF1 Alpha; source: HEK293T-FTH1 KO, transiently transfected, in lysate; not shown: MYC, N-terminal, kept
T5 sequence (P02794 whole entry A19Y): as the sequence (P02794 whole entry R23I) above, with A19Y, I23R counted along it

[6] = biological target: T6, N-terminally MYC-tagged FTH1-N22A (human, UniProt P02794 1-183, N22A); experiment: as above; conditions: partners not purified
T6 construct: ferritin heavy chain (FTH1), NM_002032.3, mutant synthesized by Twist Bioscience in pTwist EF1 Alpha; source: HEK293T-FTH1 KO, transiently transfected, in lysate; not shown: MYC, N-terminal, kept
T6 sequence (P02794 whole entry N22A): as the sequence (P02794 whole entry R23I) above, with N22A, I23R counted along it

[7] = biological target: T7, N-terminally MYC-tagged FTH1-S114D (human, UniProt P02794 1-183, S114D); experiment: as above; conditions: partners not purified
T7 construct: ferritin heavy chain (FTH1), NM_002032.3, phosphomimetic mutant synthesized by Twist Bioscience in pTwist EF1 Alpha; source: HEK293T-FTH1 KO, transiently transfected, in lysate; not shown: MYC, N-terminal, kept
T7 sequence (P02794 whole entry S114D): as the sequence (P02794 whole entry R23I) above, with I23R, S114D counted along it

FTH1-S114D (recombinant) = biological target: T8, FTH1-S114D (recombinant) (human, UniProt P02794 1-183, S114D); experiment: ITC; 16 injections of 3 uL NCOA4 into the cell containing ferritin; 25.00 C; 100 mM MOPS, 100 mM NaCl, pH 7.4; one class of independent binding sites; conditions: both partners purified
T8 construct: ferritin heavy chain (FTH1), human, phosphomimetic mutant ordered from Twist Bioscience in pET-29b(+); source: E. coli BL21 (DE3), purified (heat treatment, HiTrap Q HP, ammonium sulfate)
T8 sequence (P02794 whole entry S114D): as the sequence (P02794 whole entry R23I) above, with I23R, S114D counted along it

[8] = biological target: T9, FTL S19R, Q26Y, A86D, K106N (L2H mutant, recombinant) (UniProt P02792 1-175, S19R | Q26Y | A86D | K106N); experiment: as above; conditions: both partners purified
T9 construct: ferritin light chain (FTL) with four residues of FTH1 brought into the cleft; mutant ordered from Twist Bioscience in pET-29b(+); also called FTL mutant L2H; source: E. coli BL21 (DE3), purified (heat treatment, HiTrap Q HP, ammonium sulfate)
T9 sequence (P02792 whole entry S19R/Q26Y/A86D/K106N): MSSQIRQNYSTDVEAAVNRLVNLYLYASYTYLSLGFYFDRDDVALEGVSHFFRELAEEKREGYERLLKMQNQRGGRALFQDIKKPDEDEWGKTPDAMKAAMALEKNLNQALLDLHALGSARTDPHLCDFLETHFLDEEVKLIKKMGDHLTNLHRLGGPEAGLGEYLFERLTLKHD

[9] = biological target: T10, human FTH1 wild type (recombinant ferritin nanocage) (human, UniProt P02794 1-183); experiment: as above; conditions: both partners purified
T10 construct: ferritin heavy chain (FTH1), human; plasmid from Addgene #122652; Homopolymer cage; also called FTH1-WT; WT-FTH1; source: E. coli BL21 (DE3), purified (heat treatment, HiTrap Q HP, ammonium sulfate); copies: 24
T10 sequence (P02794 whole entry): as the sequence (P02794 whole entry R23I) above, with I23R counted along it

Binder	relative interaction by immunoprecipitation (% of FTH1-WT) [1] [%]	relative interaction by immunoprecipitation (% of FTH1-WT) [2] [%]	relative interaction by immunoprecipitation (% of FTH1-WT) [3] [%]	relative interaction by immunoprecipitation (% of FTH1-WT) [4] [%]	relative interaction by immunoprecipitation (% of FTH1-WT) [5] [%]	relative interaction by immunoprecipitation (% of FTH1-WT) [6] [%]	relative interaction by immunoprecipitation (% of FTH1-WT) [7] [%]	Kd (FTH1-S114D (recombinant)) [µM]	dH (FTH1-S114D (recombinant)) [kcal/mol]	stoichiometry N (FTH1-S114D (recombinant))	Kd [8] [µM]	dH [8] [kcal/mol]	stoichiometry N [8]	Kd [9] [µM]	dH [9] [kcal/mol]	stoichiometry N [9]
B1	13	113	86	5.35	8.86	3.72	111	–	–	–	–	–	–	–	–	–
B2	–	–	–	–	–	–	–	3.5	-4.66	3	5.6	-5.26	1.9	2.4	-5.5	2.5
